Results: paper PMC5538626 (EMBO Reports, 2017)
Ends that are not written are not given here.

B1: Biotinylated PLEKHM1-LIR V636L peptide (peptide)
peptide: EDEWLNVQY
modifications: also: biotinylated, position not given here
notes: also called V636X with X = L; L in position X1; source: synthetic peptide, bought: JPT, Germany
B2: Biotinylated PLEKHM1-LIR V636I peptide (peptide, UniProt Q9Y4G2 632-640, looked up)
peptide: EDEWINVQY
modifications: also: biotinylated, position not given here
notes: also called V636X with X = I; I in position X1; source: synthetic peptide, bought: JPT, Germany

Columns and labels:
[1] = target: T1, 6xHis-tagged GABARAP-L1 (human, UniProt Q9H0R8 1-117); assay: peptide or protein array; biotinylated peptides immobilised on streptavidin-coated 96-well plates, 1 uM His6-tagged mATG8 in PBS, 0.1% Tween-20, 1% BSA, 1 h at 8 C, detected with anti-His-HRP and TMB at 450 nm; expressed relative to the WT LIR peptide; conditions: both partners purified
T1 construct: GABARAP-L1, human; also called HIS6-GABARAP-L1; source: isolated from E. coli
T1 sequence (Q9H0R8 whole entry, looked up): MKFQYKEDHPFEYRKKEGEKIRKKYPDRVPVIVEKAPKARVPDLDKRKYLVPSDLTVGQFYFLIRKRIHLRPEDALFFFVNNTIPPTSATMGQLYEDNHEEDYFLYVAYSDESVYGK

[2] = target: T2, 6xHis-tagged GABARAP (human, UniProt O95166 1-117); assay: as above; conditions: both partners purified
T2 construct: GABARAP, human; also called HIS6-GABARAP; source: isolated from E. coli
T2 sequence (O95166 whole entry): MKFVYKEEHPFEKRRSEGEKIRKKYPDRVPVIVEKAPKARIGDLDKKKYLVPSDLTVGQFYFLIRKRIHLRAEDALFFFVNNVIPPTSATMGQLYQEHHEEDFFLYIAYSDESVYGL

Binder	binding result [1]	binding result [2]
B1	binds	–
B2	–	binds
